Patent US20150182581A1 (COUNCIL OF SCIENTIFIC AND INDUSTRIAL RESEARCH, published 2015)

Target: ASK-1 + Nef (Nef and ASK1g co-transfected in ATCC CRL-1573 cells) (HIV-1; human, UniProt Q99683 1-1050)
Assay: cell-based or functional assay

ASK-1 + Nef (Nef and ASK1g co-transfected in ATCC CRL-1573 cells), sequence (Q99683 1-1050): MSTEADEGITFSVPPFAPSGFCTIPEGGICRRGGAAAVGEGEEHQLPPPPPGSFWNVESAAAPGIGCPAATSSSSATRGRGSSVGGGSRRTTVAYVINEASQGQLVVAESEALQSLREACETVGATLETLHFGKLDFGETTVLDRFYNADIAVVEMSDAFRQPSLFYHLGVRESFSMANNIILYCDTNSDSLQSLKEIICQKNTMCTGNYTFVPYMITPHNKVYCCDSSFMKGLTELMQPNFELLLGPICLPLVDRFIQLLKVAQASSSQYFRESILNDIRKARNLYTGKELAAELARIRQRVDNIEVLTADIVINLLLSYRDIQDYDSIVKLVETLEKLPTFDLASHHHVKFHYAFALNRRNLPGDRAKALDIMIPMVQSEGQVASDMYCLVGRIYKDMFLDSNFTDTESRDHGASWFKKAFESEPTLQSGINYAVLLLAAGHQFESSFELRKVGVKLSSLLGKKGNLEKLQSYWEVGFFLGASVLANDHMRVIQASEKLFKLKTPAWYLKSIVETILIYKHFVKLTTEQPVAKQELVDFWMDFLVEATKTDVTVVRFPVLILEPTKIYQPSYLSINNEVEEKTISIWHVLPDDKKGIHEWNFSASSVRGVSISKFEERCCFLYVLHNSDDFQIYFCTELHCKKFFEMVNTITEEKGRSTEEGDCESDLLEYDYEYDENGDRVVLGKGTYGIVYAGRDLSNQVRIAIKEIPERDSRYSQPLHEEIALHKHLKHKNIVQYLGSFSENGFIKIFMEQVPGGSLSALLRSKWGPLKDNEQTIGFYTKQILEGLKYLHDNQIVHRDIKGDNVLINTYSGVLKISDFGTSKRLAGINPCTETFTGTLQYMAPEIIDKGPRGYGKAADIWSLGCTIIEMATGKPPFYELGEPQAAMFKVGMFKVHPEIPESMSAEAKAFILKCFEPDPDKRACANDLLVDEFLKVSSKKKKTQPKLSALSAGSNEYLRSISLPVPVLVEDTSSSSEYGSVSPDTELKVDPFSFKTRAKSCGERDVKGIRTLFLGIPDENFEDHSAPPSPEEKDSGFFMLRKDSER

B1: Peptide-2 (peptide)
peptide: GENNCLLH
% of Annexin V cells means apoptotic cells: 25%

B2: Peptide-4 (peptide)
peptide: LHGMEDPE
% of Annexin V cells means apoptotic cells: 23%

B3: Peptide-3 (peptide)
peptide: DEVGEANN
% of Annexin V cells means apoptotic cells: 40.4%

B4: Peptide-5 (peptide)
peptide: PVRPQVPLRP
% of Annexin V cells means apoptotic cells: 22.4%

B5: Peptide-1 (peptide)
peptide: TPGPGVRYP
% of Annexin V cells means apoptotic cells: 22.4%
